# Measured values reported in the supplement of paper PMC9170038.
# System: MS2 coat protein
# Experiment: apparent KD of MS2 coat protein; designed switch direction (-1 OFF switch, 1 ON switch): -1; higher = weaker reporter binding
# Outline: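 Designed RNA switches sharing common flanks were transcribed on Illumina chips by stalled E. coli RNA polymerase. They were titrated with SNAP-549-labelled MS2 coat protein, from 0.7 or 1.5 nM doubling to 3 µM, in Tris-HCl pH 7.5 buffer with KCl, MgCl2, BSA, DTT, tRNA and Tween-20. Titrations ran without input, with 200 uM small-molecule ligand, or with an oligonucleotide input. The apparent KD of each design is the median over its clusters, after curve-fitting of normalised cluster fluorescence.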
# [1] = input ligand: microRNA oligo, concentration not stated
# [2] = Eterna round: R95, input ligand: FMN 200 uM
# [3] = Eterna round: R95, input ligand: microRNA oligo, concentration not stated
# [4] = Eterna round: R95, input ligand: none
Sequence,apparent KD of MS2 coat protein (input ligand: FMN 200 uM),apparent KD of MS2 coat protein (input ligand: none),apparent KD of MS2 coat protein [3],further results
"ACAUGAGGAUCACCCAUGUCCGGCUGGUCUGGUCCGGCUGUCGAGGAUAUAGUCCGGUGUUCGCGCUAGAAGGCGGGAGCUGGA [Aenatbe mod 50] (Eterna round: R96, puzzle: Exclusion NG 3)",144 nM,85 nM,–,apparent KD of MS2 coat protein [1]: 62.2 nM
"UUGUUAUAUGUAGGAUAUGCAUAUUGUUGUUAUGCAGAAGGACAUGAGGAUCACCCAUGUAUAUUAUUGUUAUAUAUUGUAUAU [Title] (Eterna round: R96, puzzle: Exclusion NG 1)",–,–,–,apparent KD of MS2 coat protein [1]: 20.1 nM
"CGUCUGUAAGGAUAUGGUAGCAUCAACAUGAGGAUCACCCAUGUUACAUGGGACUAGUGAUUAGAAGGUACGAACG [EX5 #56] (Eterna round: R97, puzzle: Exclusion 5)",58.5 nM,80.6 nM,–,–
"ACAUGAGGAUCACCCAUGUACAGGGUUUAGUUUCAUUGUUUGAAGGAUAUACUUAGUUAGUUGUUGUAGAAGGUCAUAUUUUAU [JR_ExcNG3_Sub002] (Eterna round: R96, puzzle: Exclusion NG 3)",–,–,–,apparent KD of MS2 coat protein [1]: 156 nM
GGAAGACAUGAGGAUCACCCAUGUAAGGAUAUCGAAGGUAAGAGAGGAAAGAAGGGAACGAGAAGGUACAGGUG [JR_Exclu1_Sub095] (puzzle: Exclusion 1),–,–,88.9 nM,apparent KD of MS2 coat protein [2]: 102 nM; apparent KD of MS2 coat protein [4]: 123 nM
"UGUUGUCGCGCAGGAUAUGGCCAACAGGCCCUAGGAUAUCCGAAAGGAGAAGGAGCGCCAACAGGCGAGAAGGGCGGGACAACU [pwkr exNG2 2xF7 2xFMN.16] (Eterna round: R96, puzzle: Exclusion NG 2)",19.5 nM,29.7 nM,–,apparent KD of MS2 coat protein [1]: 4.03 nM
AUUGAUGUUGAGGAUAUGCUUUUAUUUAUAAUAGCAGAAGGCGAUACAUGAGGAUCACCCAUGUUCAUGGUAGU [JR_E6_Sub095] (puzzle: Exclusion 6),–,–,50.4 nM,–
"GAUCUGCAGCAGGAUAUGCUCUCGGAAACGAGCGCAGAAGGGCUGACAUGAGGAUCACCCAUGUAAUAAUGGCC [EX6 A.24] (Eterna round: R97, puzzle: Exclusion 6)",89.7 nM,44.2 nM,–,–
CUGAGCUGAGGAUAUACAUGAGGAUCACCCAUGUGUUCCAGCUUGGGUACAGGCACAUGUAGAAGGCAGUUCGG [Mod of JL - ex3-3.35 Brourd mod] (puzzle: Exclusion 3),–,–,62 nM,–
"CGUAAGGUAGGAUAUACAUGAGGAUCACCCAUGUCCCACCCGUUACCUAUGACCAUAUGUAGAAGGACCAAUGC [Exy#10] (Eterna round: R97, puzzle: Exclusion 3)",20.7 nM,22.7 nM,–,–
"AAUUAGUGAGGAUAUUUUAACAGUGGUAGUAGACAGUGGAUGAAGAAGGCACAUGAGGAUCACCCAUGUUAUAA [EX4 #55] (Eterna round: R97, puzzle: Exclusion 4)",164 nM,147 nM,–,–
UUUUAACAUGAGGAUCACCCAUGUGAGGAUAUGGUAUUUUUUUUUUUUUUUUUUUUUUCCAGAAGGCACAUUUU [My solution] (puzzle: Exclusion 1),–,–,35.1 nM,apparent KD of MS2 coat protein [2]: 38.4 nM; apparent KD of MS2 coat protein [4]: 74.9 nM
"GCUUGUAGAGGAUAUACGAGGGCCCGAGCGGAUAACACCGCACAUGAGGAUCACCCAUGUAGAAGGCUACUACC [JL-ex2-4.17 ViennaUCT mod] (Eterna round: R97, puzzle: Exclusion 2)",495 nM,92.3 nM,–,–
"CGGGUCGGAGGAUAUACAGAAGCAUCUGUGUCGGGAAUAUGACAUGAGGAUCACCCAUGUAGAAGGCCGAUCAC [Eternabot (L2) Solution 98] (Eterna round: R97, puzzle: Exclusion 2)",485 nM,80 nM,–,–
AAGGAUAGAGGAUAUACAUAGAUACAGAUUCAUGUAGACCUACAUGAGGAUCACCCAUGUAGAAGGCUAUCCUA [Fiskers Ex 2 - 11] (puzzle: Exclusion 2),–,–,16 nM,–
